B1: Monopolin complex subunit CSM1 (Saccharomyces cerevisiae), P25651 (parent)
chain: MDPLTVYKNSVKQQIDSADLLVANLVNENFVLSEKLDTKATEIKQLQKQIDSLNAQVKELKTQTSQQAENSEVIKDLYEYLCNVRVHKSYEDDSGLWFDISQGTHSGGSSDDYSIMDYKLGFVKGQAQVTEVIYAPVLKQRSTEELYSLQSKLPEYLFETLSFPLSSLNQFYNKIAKSLNKKREKKDETE
partner: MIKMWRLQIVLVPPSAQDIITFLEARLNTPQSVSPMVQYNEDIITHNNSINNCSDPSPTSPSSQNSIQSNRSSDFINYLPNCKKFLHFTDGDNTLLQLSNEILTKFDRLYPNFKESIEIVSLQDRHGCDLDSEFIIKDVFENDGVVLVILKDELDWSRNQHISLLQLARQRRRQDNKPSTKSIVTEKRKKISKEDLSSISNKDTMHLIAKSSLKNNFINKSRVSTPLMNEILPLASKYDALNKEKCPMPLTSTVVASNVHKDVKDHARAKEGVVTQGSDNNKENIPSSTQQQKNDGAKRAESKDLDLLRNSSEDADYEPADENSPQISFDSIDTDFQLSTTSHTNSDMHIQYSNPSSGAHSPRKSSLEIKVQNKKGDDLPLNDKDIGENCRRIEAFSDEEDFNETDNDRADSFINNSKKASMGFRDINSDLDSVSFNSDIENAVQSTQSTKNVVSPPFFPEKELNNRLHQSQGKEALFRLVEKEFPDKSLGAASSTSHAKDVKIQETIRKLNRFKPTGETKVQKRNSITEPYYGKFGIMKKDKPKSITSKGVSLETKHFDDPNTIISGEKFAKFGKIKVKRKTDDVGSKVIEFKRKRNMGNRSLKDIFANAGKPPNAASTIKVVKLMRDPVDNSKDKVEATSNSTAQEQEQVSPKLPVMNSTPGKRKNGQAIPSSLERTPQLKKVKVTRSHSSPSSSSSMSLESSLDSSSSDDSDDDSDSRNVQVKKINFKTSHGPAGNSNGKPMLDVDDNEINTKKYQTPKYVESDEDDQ
B2: Monopolin complex subunit pcs1 (Schizosaccharomyces pombe (strain ATCC 38366 / 972)), O13684 (parent)
chain: MRKNNMQTSKDSELKEQAKGKSSKLIHKLPKQRTRISQGQMHSTQDFVNNEDQDAYSVRENENELHINNSGMSELNKKLQLPNVELSTLSHTQEQEFNELNKLIRKINELQEFYLLEDLAKPVTNAGADADDTIVKDLKKELENEKKANHSLKNELLKTREQIKNYSKINILIKELFGLEVADCIEDEDGYRFNCKNTGRRGTLEYQLLLDDQNFTFTPRLNVQTDEELMKHLPDYLLEEIIFTKEQGKLFSARLMKALQD
partner: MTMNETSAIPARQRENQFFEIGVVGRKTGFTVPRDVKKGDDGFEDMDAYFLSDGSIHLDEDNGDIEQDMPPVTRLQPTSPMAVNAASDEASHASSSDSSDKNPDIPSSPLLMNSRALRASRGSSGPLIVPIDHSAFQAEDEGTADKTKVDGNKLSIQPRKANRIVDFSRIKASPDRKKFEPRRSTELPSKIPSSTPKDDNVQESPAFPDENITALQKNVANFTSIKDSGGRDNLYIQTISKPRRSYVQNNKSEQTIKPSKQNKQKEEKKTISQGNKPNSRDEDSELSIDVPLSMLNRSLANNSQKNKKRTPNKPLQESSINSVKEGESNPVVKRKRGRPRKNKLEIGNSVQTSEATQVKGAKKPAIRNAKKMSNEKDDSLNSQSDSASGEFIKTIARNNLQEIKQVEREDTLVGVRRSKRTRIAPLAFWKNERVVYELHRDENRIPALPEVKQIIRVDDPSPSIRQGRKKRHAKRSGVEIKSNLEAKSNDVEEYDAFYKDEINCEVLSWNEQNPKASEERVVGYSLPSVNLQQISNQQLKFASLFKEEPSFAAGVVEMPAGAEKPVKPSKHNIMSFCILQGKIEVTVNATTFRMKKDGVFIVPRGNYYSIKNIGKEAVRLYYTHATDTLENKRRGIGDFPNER

Variants of: B1
Settings: with tof2_yeast TOF2, Q02208

Effect of a mutation on the interaction, decreasing interaction:
L161D
L161K
Y156E
Y156A
K174E

Variants of: B2
Settings: with cenpc_schpo cnp3, Q9USR9

Effect of a mutation on the interaction, decreasing interaction:
Y236A
I241A
